# B1: 52 bp dsDNA (G-segment) (dsDNA)
# DNA 1: ATGCATATATATGTATATGTATGTGTGTATATATACACATATATATATATAT
# DNA 2: ATATATATATATATGTGTATATATACACACATACATATACATATATATGCAT
# B2: four-way junction DNA, Cy5 (structured_DNA)
# DNA 1: CTGGACGCAATCTGACAATGCGCTCATCGTCATCCTCGGCACGCGCCG
# DNA 2: CGGCGCGTGCCGAGGATGACGATGAGATAGGCGTTAACGCGGCCTA
# DNA 3: TAGGCCGCGTTAACGCCTATTTGCCCGGGAGTACCGGCATTCCT
# DNA 4: AGGAATGCCGGTACTCCCGGGCAACGCATTGTCAGATTGCGTCCAG
# B3: four-way junction DNA (structured_DNA)
# DNA 1: B2 DNA 1
# DNA 2: B2 DNA 2
# DNA 3: B2 DNA 3
# DNA 4: B2 DNA 4
# How the values were obtained:
# [1] = molecular target: T1, pP1192R DNA topoisomerase II, full-length (African swine fever virus, UniProt A0A2X0THW2 1-1192); assay: cryo-EM; conditions: protein: recombinant; tags: C-terminal 8xHis; chain copies: 2; blunt
# [2] = molecular target: T1, pP1192R DNA topoisomerase II, …; assay: EMSA; conditions: protein: recombinant; tags: C-terminal 8xHis; chain copies: 2; label: 5'-Cy5 on O1; four-way junction of O1-O4
# [3] = molecular target: T1, pP1192R DNA topoisomerase II, …; assay: size exclusion chromatography; conditions: protein: recombinant; tags: C-terminal 8xHis; chain copies: 2; four-way junction of O1-O4
binder,measurement,setting,value
B1,binding result,[1],binds
B2,binding result,[2],binds
B3,binding result,[3],binds

# Reference: PMC11139879
